The target of one series is PAXX (cleaved) (Homo sapiens, UniProt Q9BUH6 1-204). Kind of series: EMSA; 0.5 µM PAXX; EMSA: 50 mM Tris-HCl pH 7.5, 100 mM KCl, 2.5 mM MgCl2, 1 mM DTT, 4% glycerol, 0.05% Triton X-100, 0.1 mg/ml BSA, 10-20 nM DNA, 30 min at 25 °C; 4-5% native PAGE, 0.5x TBE, 4 °C. The note with it: protein: recombinant; tags: GST tag cleaved (PreScission); chain copies: 2; label: 5' IRDye 700 on one strand; 5-nt gap. Background: Mobility shift assays separate free from complexed probe on a gel.

In a further series the target is Pol λ WT (Homo sapiens, UniProt Q9UGP5 1-575). In words: EMSA; 40 or 200 nM Pol λ; EMSA: 50 mM Tris-HCl pH 7.5, 100 mM KCl, 2.5 mM MgCl2, 1 mM DTT, 4% glycerol, 0.05% Triton X-100, 0.1 mg/ml BSA, 10-20 nM DNA, 30 min at 25 °C; 4-5% native PAGE, 0.5x TBE, 4 °C. The note with it: protein: recombinant; tags: FLAG; label: 5' IRDye 700 on one strand; 5-nt gap.

B1: 5nt-gapped dsDNA 30-mer (dsDNA)
DNA 1: ACTGGCCGTCGTTCTATTGTACTCACTGTGATC
DNA 2: GATCACAGTGAGTAC
DNA 3: AACGACGGCCAGT
As for B1, the binding result is listed as “no binding” in the series with PAXX (cleaved) and “binds” in the series with Pol λ WT.

Source of the values: publication PMC6155126.
